pKd data for four molecules are collected here from article PMC9482650, “Quantitative fragmentomics allow affinity mapping of interactomes” (Nature Communications, 2022).

Where a chain is given by its changes, count along the chain named.

Some targets named below: PTPN3, P26045; FRMPD3, Q5JV73; Inadl_3, Q8NI35; HTRA1, Q92743; DLG4_2, P78352; MAST2, Q6P0Q8; DLG1_2, Q12959; LNX1_2, Q8TBB1; SNX27, Q96L92; SCRIB_2, Q14160; FRMPD2_2, Q68DX3.
Common to all, as to test: holdup assay
Parameters in all cases: key: below the threshold = too weak to quantify, mostly under pKd 3.1 to 4

In a further test the target is T1, PDZD7_3, Q9H5P4.
T1 sequence (Q9H5P4 857-944, limits assumed, looked up): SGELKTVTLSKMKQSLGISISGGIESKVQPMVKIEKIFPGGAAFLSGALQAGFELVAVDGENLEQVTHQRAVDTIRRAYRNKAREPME

The next test deals with T2, DFNB31_1, Q9P202.
T2 sequence (Q9P202 135-233, limits assumed, looked up): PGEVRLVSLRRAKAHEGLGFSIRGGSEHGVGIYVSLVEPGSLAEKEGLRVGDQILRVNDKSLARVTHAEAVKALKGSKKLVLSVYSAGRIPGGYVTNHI

Another test deals with T3, RAPGEF6, Q8TEU7.
T3 sequence (Q8TEU7 525-625, limits assumed, looked up): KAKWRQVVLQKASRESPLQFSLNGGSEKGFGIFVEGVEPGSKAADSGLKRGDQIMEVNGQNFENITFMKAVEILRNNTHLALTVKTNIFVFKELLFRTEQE

Another test has as its target T4, LIN7A, O14910.
T4 sequence (O14910 103-200, limits assumed, looked up): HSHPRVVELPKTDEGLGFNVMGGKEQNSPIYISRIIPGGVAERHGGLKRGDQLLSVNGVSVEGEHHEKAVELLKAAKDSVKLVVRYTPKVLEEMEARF

A further test concerns the target T5, FRMPD1, Q5SYB0.
T5 sequence (Q5SYB0 52-145, limits assumed, looked up): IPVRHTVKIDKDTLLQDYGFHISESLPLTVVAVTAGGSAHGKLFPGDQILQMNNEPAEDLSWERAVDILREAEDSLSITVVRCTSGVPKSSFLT

In a further test the target is T6, MPDZ_10, O75970.
T6 sequence (O75970 1624-1722, limits assumed, looked up): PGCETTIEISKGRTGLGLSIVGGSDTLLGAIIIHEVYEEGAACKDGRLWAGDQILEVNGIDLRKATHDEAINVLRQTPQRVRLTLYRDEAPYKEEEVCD

In the next test the target is T7, LNX2_2, Q8N448.
T7 sequence (Q8N448 334-432, limits assumed, looked up): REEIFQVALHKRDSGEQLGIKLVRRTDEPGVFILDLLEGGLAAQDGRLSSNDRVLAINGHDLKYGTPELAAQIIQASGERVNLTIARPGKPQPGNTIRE

In a further test the target is T8, PDZRN3_1, Q9UPQ7.
T8 sequence (Q9UPQ7 244-349, limits assumed, looked up): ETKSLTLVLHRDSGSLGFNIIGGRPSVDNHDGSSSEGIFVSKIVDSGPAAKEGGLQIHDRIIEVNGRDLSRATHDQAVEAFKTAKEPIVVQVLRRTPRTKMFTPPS

The next test deals with T9, SIPA1L2, Q9P2F8.
T9 sequence (Q9P2F8 945-1036, limits assumed, looked up): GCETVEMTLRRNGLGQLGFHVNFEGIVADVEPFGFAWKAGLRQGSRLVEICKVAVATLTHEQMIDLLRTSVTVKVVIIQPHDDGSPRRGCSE

In the next test the target is T10, LIN7B, Q9HAP6.
T10 sequence (Q9HAP6 88-185, limits assumed, looked up): T4 sequence (O14910 103-200, limits assumed, looked up) with S2A, V20I, I35V, E42D, H65Q, K77Q, D78G, K89R

The target in another test is T11, TIAM2, Q8IVF5.
T11 sequence (Q8IVF5 885-986, limits assumed, looked up): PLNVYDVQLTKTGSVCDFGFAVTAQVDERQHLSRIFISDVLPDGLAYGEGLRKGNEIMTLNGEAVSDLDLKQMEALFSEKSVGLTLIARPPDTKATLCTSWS

Another test has as its target T12, SYNJ2BP, P57105.
T12 sequence (P57105 8-110, limits assumed, looked up): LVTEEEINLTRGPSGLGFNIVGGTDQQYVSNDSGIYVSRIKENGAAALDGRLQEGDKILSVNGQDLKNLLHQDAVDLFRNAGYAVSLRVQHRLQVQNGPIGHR

Another test deals with T13, NHERF3_4, Q5T2W1.
T13 sequence (Q5T2W1 373-468, limits assumed, looked up): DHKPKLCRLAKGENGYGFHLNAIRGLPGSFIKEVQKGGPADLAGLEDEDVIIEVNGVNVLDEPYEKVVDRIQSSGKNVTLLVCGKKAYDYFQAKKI

The mark [1] stands for this setting: modified: phospho on T at position -1 from the C-terminal residue.
[2] abbreviates: plain residues with an end cap or a label only (N-terminal biotin on a linker: ado-ado).

By pKd is commonly meant the Kd on a negative log10 scale, so that one unit is a factor of ten.

FRMPD3, Q5JV73, sequence (Q5JV73 12-100): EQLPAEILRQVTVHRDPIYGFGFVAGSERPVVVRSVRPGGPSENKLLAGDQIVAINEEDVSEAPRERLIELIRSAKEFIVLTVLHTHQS
DLG1_2, Q12959, sequence (Q12959 314-412): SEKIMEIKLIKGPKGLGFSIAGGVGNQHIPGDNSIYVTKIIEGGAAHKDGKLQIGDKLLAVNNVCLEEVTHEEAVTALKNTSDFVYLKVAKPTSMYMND
MAST2, Q6P0Q8, sequence (Q6P0Q8 1099-1202): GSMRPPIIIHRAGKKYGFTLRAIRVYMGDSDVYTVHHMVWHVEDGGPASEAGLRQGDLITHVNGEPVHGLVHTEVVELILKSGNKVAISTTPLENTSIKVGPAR
HTRA1, Q92743, sequence (Q92743 360-477): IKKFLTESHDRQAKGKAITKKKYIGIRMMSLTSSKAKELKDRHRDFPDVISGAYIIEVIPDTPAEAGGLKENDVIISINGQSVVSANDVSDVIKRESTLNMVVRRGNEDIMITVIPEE
SCRIB_2, Q14160, sequence (Q14160 857-960): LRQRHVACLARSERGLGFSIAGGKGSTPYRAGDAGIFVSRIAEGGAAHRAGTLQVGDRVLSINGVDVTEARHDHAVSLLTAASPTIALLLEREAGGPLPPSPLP
FRMPD2_2, Q68DX3, sequence (Q68DX3 944-1038): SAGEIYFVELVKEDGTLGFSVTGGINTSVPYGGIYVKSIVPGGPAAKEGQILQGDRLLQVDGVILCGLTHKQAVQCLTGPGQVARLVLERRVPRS
DLG4_2, P78352, sequence (P78352 155-259): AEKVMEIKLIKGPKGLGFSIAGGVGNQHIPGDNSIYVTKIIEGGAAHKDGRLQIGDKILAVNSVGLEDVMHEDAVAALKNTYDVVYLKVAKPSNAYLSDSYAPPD
PTPN3, P26045, sequence (P26045 505-587): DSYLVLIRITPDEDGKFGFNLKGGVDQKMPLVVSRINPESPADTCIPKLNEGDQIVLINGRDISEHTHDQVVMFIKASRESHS
LNX1_2, Q8TBB1, sequence (Q8TBB1 371-470): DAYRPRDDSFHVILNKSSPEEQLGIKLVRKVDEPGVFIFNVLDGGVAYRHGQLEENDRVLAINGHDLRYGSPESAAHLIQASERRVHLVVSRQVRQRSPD
Inadl_3, Q8NI35, sequence (Q8NI35 359-469): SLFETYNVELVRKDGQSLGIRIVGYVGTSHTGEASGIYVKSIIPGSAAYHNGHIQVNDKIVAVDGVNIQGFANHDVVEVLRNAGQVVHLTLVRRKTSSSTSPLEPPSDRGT

As for RRVRKLPSTTL [RPS6KA1_-1P, Q15418], the negative logarithm of the Kd (pKd) was 4.91 with PDZD7_3, Q9H5P4 (setting [1]); 3.6 with DFNB31_1, Q9P202 (setting [1]); 4.48 with PTPN3, P26045 (setting [1]); 3.38 in the test with RAPGEF6, Q8TEU7 (setting [1]); “below the threshold” in the test with FRMPD3, Q5JV73 (setting [1]); 3.76 with Inadl_3, Q8NI35 (setting [1]). In addition, the negative-log Kd (pKd) was 4.7 with HTRA1, Q92743 (setting [1]); “below the threshold” with LIN7A, O14910 (setting [1]); “below the threshold” with FRMPD1, Q5SYB0 (setting [1]); 3.85 with DLG4_2, P78352 (setting [1]); “below the threshold” with MPDZ_10, O75970 (setting [1]); “below the threshold” with LNX2_2, Q8N448 (setting [1]). Further, the negative logarithm of the Kd (pKd) was 5.17 with MAST2, Q6P0Q8 (setting [1]); 4.26 in the test with PDZRN3_1, Q9UPQ7 (setting [1]); “below the threshold” with SIPA1L2, Q9P2F8 (setting [1]); 3.83 with DLG1_2, Q12959 (setting [1]); “below the threshold” with LNX1_2, Q8TBB1 (setting [1]); 3.56 in the test with LIN7B, Q9HAP6 (setting [1]). Besides, the pKd is 3.92 with SNX27, Q96L92 (setting [1]); 3.61 with SCRIB_2, Q14160 (setting [1]); 3.41 with TIAM2, Q8IVF5 (setting [1]); 4.48 with SYNJ2BP, P57105 (setting [1]); 3.47 with FRMPD2_2, Q68DX3 (setting [1]); 3.75 with NHERF3_4, Q5T2W1 (setting [1]).

Consider LEPAVRSSEL [SH2D3C, Q8N5H7], for which the pKd in the test with PDZD7_3, Q9H5P4 (setting [2]) was 4.71; in the test with DFNB31_1, Q9P202 (setting [2]) it was “below the threshold”; with PTPN3, P26045 (setting [2]), 4.82; in the test with RAPGEF6, Q8TEU7 (setting [2]), “below the threshold”; with FRMPD3, Q5JV73 (setting [2]), “below the threshold”; with Inadl_3, Q8NI35 (setting [2]) it was “below the threshold”. For the same molecule, the pKd result with HTRA1, Q92743 (setting [2]) is on record as “below the threshold”; in the test with LIN7A, O14910 (setting [2]) it was “below the threshold”; with FRMPD1, Q5SYB0 (setting [2]), “below the threshold”; with DLG4_2, P78352 (setting [2]), “below the threshold”; with MPDZ_10, O75970 (setting [2]), “below the threshold”; with LNX2_2, Q8N448 (setting [2]) it was “below the threshold”. In addition, the pKd in the test with MAST2, Q6P0Q8 (setting [2]) is 5.51; with PDZRN3_1, Q9UPQ7 (setting [2]), 4.13; in the test with SIPA1L2, Q9P2F8 (setting [2]) it was “below the threshold”; with DLG1_2, Q12959 (setting [2]), 4.29; with LNX1_2, Q8TBB1 (setting [2]), “below the threshold”; in the test with LIN7B, Q9HAP6 (setting [2]) it was “below the threshold”. For the same molecule, the pKd is 4.68 in the test with SNX27, Q96L92 (setting [2]); “below the threshold” in the test with SCRIB_2, Q14160 (setting [2]); “below the threshold” with TIAM2, Q8IVF5 (setting [2]); 4.44 with SYNJ2BP, P57105 (setting [2]); “below the threshold” with FRMPD2_2, Q68DX3 (setting [2]); 4.26 in the test with NHERF3_4, Q5T2W1 (setting [2]).

For DQPLEKSTKL [AKAP10, O43572], the negative logarithm of the Kd (pKd) was 4.54 with PDZD7_3, Q9H5P4 (setting [2]); 3.73 with DFNB31_1, Q9P202 (setting [2]); 4.62 with PTPN3, P26045 (setting [2]); “below the threshold” in the test with RAPGEF6, Q8TEU7 (setting [2]); “below the threshold” with FRMPD3, Q5JV73 (setting [2]); “below the threshold” with Inadl_3, Q8NI35 (setting [2]). For the same molecule, the pKd entry is listed as “below the threshold” in the test with HTRA1, Q92743 (setting [2]); “below the threshold” in the test with LIN7A, O14910 (setting [2]); “below the threshold” with FRMPD1, Q5SYB0 (setting [2]); “below the threshold” in the test with DLG4_2, P78352 (setting [2]); “below the threshold” with MPDZ_10, O75970 (setting [2]); “below the threshold” with LNX2_2, Q8N448 (setting [2]). The negative logarithm of the Kd (pKd) was 5.41 with MAST2, Q6P0Q8 (setting [2]); 3.79 with PDZRN3_1, Q9UPQ7 (setting [2]); “below the threshold” with SIPA1L2, Q9P2F8 (setting [2]); “below the threshold” with DLG1_2, Q12959 (setting [2]); “below the threshold” with LNX1_2, Q8TBB1 (setting [2]); “below the threshold” with LIN7B, Q9HAP6 (setting [2]). Also, the pKd in the test with SNX27, Q96L92 (setting [2]) is 5.08; with SCRIB_2, Q14160 (setting [2]), “below the threshold”; with TIAM2, Q8IVF5 (setting [2]) it was 4.04; with SYNJ2BP, P57105 (setting [2]), “below the threshold”; with FRMPD2_2, Q68DX3 (setting [2]), “below the threshold”; in the test with NHERF3_4, Q5T2W1 (setting [2]), 5.69.

For GQSVDLVFPV [AKIP1, Q9NQ31], the pKd result with PDZD7_3, Q9H5P4 (setting [2]) is “below the threshold”; in the test with DFNB31_1, Q9P202 (setting [2]) it was “below the threshold”; in the test with PTPN3, P26045 (setting [2]), “below the threshold”; in the test with RAPGEF6, Q8TEU7 (setting [2]) it was “below the threshold”; with FRMPD3, Q5JV73 (setting [2]), 3.68; with Inadl_3, Q8NI35 (setting [2]), “below the threshold”. For the same molecule, the pKd with HTRA1, Q92743 (setting [2]) is 4.15; in the test with LIN7A, O14910 (setting [2]), “below the threshold”; in the test with FRMPD1, Q5SYB0 (setting [2]) it was “below the threshold”; in the test with DLG4_2, P78352 (setting [2]) it was “below the threshold”; in the test with MPDZ_10, O75970 (setting [2]), “below the threshold”; with LNX2_2, Q8N448 (setting [2]), 3.87. The pKd is 4.15 with MAST2, Q6P0Q8 (setting [2]); 3.47 with PDZRN3_1, Q9UPQ7 (setting [2]); “below the threshold” with SIPA1L2, Q9P2F8 (setting [2]); “below the threshold” with DLG1_2, Q12959 (setting [2]); 3.75 in the test with LNX1_2, Q8TBB1 (setting [2]); “below the threshold” in the test with LIN7B, Q9HAP6 (setting [2]). Moreover, the pKd in the test with SNX27, Q96L92 (setting [2]) is 3.84; with SCRIB_2, Q14160 (setting [2]) it was “below the threshold”; with TIAM2, Q8IVF5 (setting [2]), “below the threshold”; in the test with SYNJ2BP, P57105 (setting [2]), “below the threshold”; in the test with FRMPD2_2, Q68DX3 (setting [2]) it was “below the threshold”; in the test with NHERF3_4, Q5T2W1 (setting [2]) it was “below the threshold”.
